Assay results: US20220281986A1 (RESEARCH FOUNDATION FOR THE STATE UNIVERSITY OF NEW YORK, published 2022)

Molecular target: T1, peptide corresponding to the N-terminal domain of CXCR4 (biotinylated (position not given))
T1 construct: Synthetic peptide (ABclonal), biotinylated and captured on neutravidin-coated plates; also called CXCR4 N-terminal domain; NTD of CXCR4
T1 peptide: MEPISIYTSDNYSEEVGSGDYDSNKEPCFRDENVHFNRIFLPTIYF
Assay: ELISA; serially diluted scFv on biotinylated CXCR4 N-terminal peptide captured on neutravidin
Method: The binding affinity of the anti-CXCR4 scFv was assessed with an ELISA. Purified anti-CXCR4 scFvs were serially diluted and added to a 96-well plate that was first coated with neutravidin and then coated with the biotinylated CXCR4 N-terminal peptide domain. Anti-FLAG-HRP conjugate (Sigma Aldrich) served as the primary antibody. 100 μL of Ultra-TMB substrate (Thermo Fisher Scientific) was added to quantify the amount of bound anti-CXCR4 scFv. The reaction was then quenched with 12.5 M H₂SO₄ aqueous solution. Readings were taken using a plate reader with the wavelength set to 450 nm.

Kd: 114 nM
B1: CXCR4-scFv (scFv)
scFv: QSVLTQPPSASGTPGQRVTISCSGSSSNIGSNYVYWYQQLPGTAPKLLIYRNNQRPSGVPDRFSGSKSGTSASLAISGLRSEDEGDYYCATWDDSLSGVVFGGGTKLTVLGEGKSSGSGSESKASQVTLKESGAEVKKPGASVKVSCKASGYTFTNFYIHWVRRAPGQGLEWMGIINPSDGRTTYAQKFQGRVTMTRDTSTSTLYMELTSLRSEDTAVYYCGRGGHYSNYFGQPSTWGQGTLVTVSVEASHHHHHH
modifications: labeled with DyLight 650 (NHS ester) in the cell binding and imaging assays; unlabeled in the ELISA
notes: also called scFv#c; anti-CXCR4 scFv
